This assay concerns the target GST-Rheb protein (UniProt Q15382 1-169). The assay can be described thus: BLI. A general note: BLI is a label-free optical method that tracks binding on a fibre tip over time.

Sequence of GST-Rheb protein (Q15382 1-169): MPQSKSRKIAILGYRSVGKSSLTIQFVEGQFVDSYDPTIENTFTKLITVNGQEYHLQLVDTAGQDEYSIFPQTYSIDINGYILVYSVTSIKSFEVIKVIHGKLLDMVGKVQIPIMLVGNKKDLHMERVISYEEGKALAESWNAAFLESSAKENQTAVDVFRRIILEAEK

B1: His-IL-37d, recombinant human IL-37d protein with a TAT peptide (pET-22b-TAT-his-IL-37d; mature IL-37d 21–197aa) (other)
chain: YGRKKRRQRRREPQCCLEGPKVKNLNPKKFSIHDQDHKVLVLDSGNLIAVPDKNYIRPEIFFALASSLSSASAEKGSPILLGVSKGEFCLYCDKDKGQSHPSLQLKKEKLMKLAAQKESARRPFIFYRAQVGSWNMLESAAHPGWFICTSCNCNEPVGVTDKFENRKHIEFSFQPVCKAEMSPSEVSD
As to B1, the koff (as a rule, the first-order rate constant of dissociation) came out at 0.00194 s⁻¹.
